{"source": "patent US8076087B2", "about": "“Galectin sequences and compositions and methods utilizing same for treating or diagnosing arthritis and other chronic inflammatory diseases” (Medical Research Fund of Tel Aviv Souraskv Medical Center, priority 2002, dated 2011)", "key": {"TNFα [1]": {"tested_on": "TNFα", "assay": "TNFα levels in media of LPS-supplemented human synovial tissue / cell cultures, sandwich enzyme immunoassay", "assay_type": "cell-based", "settings": "LPS 3 μg/ml, 50-2000 ng/ml, 48 hours", "experimental": "(§1) Specimen Selection and Culture Conditions: Synovial tissues were obtained from patients undergoing total knee or hip replacement for osteoarthritis (OA). Within 2 hours of removal, synovial tissues were cut into small pieces, of a few millimeters in diameter. Synovial fibroblasts were cultured in 2 ml RPMI 1640 supplemented with 2 mM L-glutamine, 100 U/ml penicillin and 100 μg/ml streptomycin sulphate (Biological Industries).\n(§2) Inflammatory cells and PBLs derived from joints of rheumatoid arthritic (RA) patients were cultured individually [RPMI-1640 (Sigma, Israel)]. The murine fibroblast line, NIH 3T3, was used as a control. The recombinant galectin-8 peptide (r-galectin-8) was added to the culture medium of the synovial fibroblasts at a concentration of 0.125 μM, 0.25 μM, 0.5 μM and 1 μM) together with lipopolysaccharide (LPS, 3 μg/ml). The recombinant galectin-8 peptide variants (r-galectin-8 variant 1 and r-galectin-8 variant 2) were added to all the culture mediums in the following concentrations: 50 ng/ml, 125 ng/ml, 250 ng/ml, 500 ng/ml, 750 ng/ml, 1 μg/ml and 2 μg/ml together with lipopolysaccharide (LPS, 3 μg/ml). Following 48 hours of incubation (37° C., 5% CO2), the measurement of IL-1β, TNF-α and IL-1ra production was performed in supernatants by quantitative sandwich enzyme immunoassay technique (R&D Systems, Inc., USA). Detection limits were 1 pg/ml to 14 pg/ml. IL-1ra production was tested with and without the addition of lipopolysaccharide (LPS, 3 μg/ml) to the culture media."}, "[2]": {"tested_on": "synovial fluid cells from RA patients", "assay": "Apoptosis induction, annexin V/PI flow cytometry, synovial fluid cells", "assay_type": "cell-based, human", "settings": "inflammatory cells from joints of arthritic patients, lowest concentration 50 ng/ml", "experimental": "(§3) The assay was performed by Phosphatidyl Serine Detection Kit (IOP-116F FITC-conjugated, IQ Products, The Netherlands) using the manufacturer instructions. Human fibroblast cells from OA patients, synovial fluid cells and PBLs from RA and other arthritic patients were incubated with increasing concentrations of galectin-8 variants 1 and 2 (50-2000 ng/ml). Specific binding of annexin V was performed by the incubation of cells for 20 minutes on ice in a binding calcium buffer containing a saturating concentration of annexin V-fluorescein isothiocyanate (FITC) and propdium iodide (PI). After incubation, the cells were pelleted, and analyzed in FACS analyzer (Beckton Dickinson, San Jose, Calif.). Annexin V^+/PI^+ cells were defined as necrotic, while annexin V^+/PI^− cells were defined as apoptotic. The percent of the apoptotic cells of the total cells was determined."}, "IL-1ra [3]": {"tested_on": "IL-1ra", "assay": "IL-1ra levels in media of NIH 3T3 fibroblasts (negative control cells)", "assay_type": "cell-based, murine", "settings": "LPS 3 μg/ml, 50-2000 ng/ml, 48 hours", "experimental": "as §2"}, "IL-1β": {"tested_on": "IL-1β", "assay": "IL-1β levels in media of NIH 3T3 fibroblasts (negative control cells)", "assay_type": "cell-based, murine", "settings": "LPS 3 μg/ml, 50-2000 ng/ml, 48 hours", "experimental": "as §2"}, "[4]": {"tested_on": "PBLs of arthritic patients", "assay": "Apoptosis induction, annexin V/PI flow cytometry, PBLs", "assay_type": "cell-based, human", "settings": "lowest concentration 50 ng/ml", "experimental": "as §3"}, "[5]": {"tested_on": "collagen induced arthritis (CIA)", "assay": "Histopathological examination of rear footpad joints of CIA mice", "assay_type": "in vivo, DBA/1 mice", "settings": "compared with joints of arthritic mice treated with PBS or PBS+30% glycerol", "from_the_text": "Histopathological examination: The rear footpad joints of 5 arthritic mice that received PBS or PBS+30% glycerol (group 1, negative control), 2 arthritic mice that received anti-mouse-TNFα mAb (group 2, positive control), 3 arthritic mice that received human galectin-8 protein (group 3, positive control), 3 normal healthy mice and 5 arthritic mice that received human galectin-8 variant 1 (group 4) were sent to an accredited pathological laboratory (Patho-Lab, Kiryat Weitzmann, Rehovot) for histopathological examination.\nQuantification of the arthritic changes was made subjectively based on degree of articular destruction and following evaluation of the different parameters often observed in arthritic joints. The definition of the parameters quantitated were: • 1. Cellularity within the joint: Cells present couldn't be identified due to loss of cellular morphology (decal), therefore red blood cells and leukocytes were all graded together. • 2. Presence of fibrin in the joint: Fibrin was present in apparently more acute lesions, but the amount of fibrin was proportionally small. • 3. Cartilage loss: Cartilage surfaces were evaluated in the section, slight changes of irregularity of the surface were noted. • 4. […] Synovial cell loss: Identification of synovial cells was difficult due to poor cellular morphology, but in general synovial surfaces were evaluated for integrity. • 6. […]"}, "IL-1ra [6]": {"tested_on": "IL-1ra", "assay": "IL-1ra levels in media of LPS-supplemented human synovial tissue / cell cultures, sandwich enzyme immunoassay", "assay_type": "cell-based", "settings": "LPS 3 μg/ml, 50-2000 ng/ml, 48 hours", "experimental": "as §1, §2"}, "TNFα [7]": {"tested_on": "TNFα", "assay": "TNFα levels in media of NIH 3T3 fibroblasts (negative control cells)", "assay_type": "cell-based, murine", "settings": "LPS 3 μg/ml, 50-2000 ng/ml, 48 hours", "experimental": "as §2"}, "[8]": {"tested_on": "human fibroblasts from OA patients", "assay": "Apoptosis induction, annexin V/PI flow cytometry, OA fibroblasts", "assay_type": "cell-based", "settings": "for total cell population in the apoptotic area: 24 h, no-addition control 39.5%", "experimental": "as §3"}, "[9]": {"settings": "human fibroblasts from OA patients"}, "[10]": {"settings": "human fibroblasts from OA patients, listed as galectin-8 var. 1"}, "[11]": {"settings": "synovial fluid cells (SFCs), listed as galectin-8 var. 1"}}, "data": [{"molecule": "galectin-8 variant 1: recombinant galectin-8 variant 1 polypeptide, SEQ ID NO: 6, isoform found in synovial fluid cells of arthritic patients (protein) MMLSLNNLQNIIYNPDLQSTQASSLELTEISRENVPKSGTPQLPSNRGGDISKIAPRTVYTKSKEARQSHFDLHENTTYELCVKSLPFAARLNTPMGPGRTVVVKGEVNANAKSFNVDLLAGKSKDIALHLNPRLNIKAFVRNSFLQESWGEEERNITSFPFSPGMYFEMIIYCDVREFKVAVNGVHSLEYKHRFKELSSIDTLEINGDIHLLEVRSW", "values": [{"measurement": "TNFα levels in media", "setting": "TNFα [1]; PBLs from RA patients", "value": "significantly and dose-dependently inhibited"}, {"measurement": "TNFα levels in media", "setting": "TNFα [1]; PBLs from RA patients, listed as galectin-8 var. 1", "value": "decrease"}, {"measurement": "TNFα levels in media", "setting": "TNFα [1]; [9]", "value": "significantly and dose-dependently inhibited"}, {"measurement": "TNFα levels in media", "setting": "TNFα [1]; [10]", "value": "decrease"}, {"measurement": "TNFα levels in media", "setting": "TNFα [1]; synovial fluid cells (SFCs)", "value": "significantly and dose-dependently inhibited"}, {"measurement": "TNFα levels in media", "setting": "TNFα [1]; [11]", "value": "decrease"}, {"measurement": "maximal apoptotic effect", "setting": "[2]", "value": "approximately 100%"}, {"measurement": "IL-1ra levels in media", "setting": "IL-1ra [3]", "value": "No effect"}, {"measurement": "IL-1ra levels in media", "setting": "IL-1ra [3]; listed as galectin-8 var. 1", "value": "remain unaffected"}, {"measurement": "IL-1β levels in media", "setting": "IL-1β", "value": "No effect"}, {"measurement": "IL-1β levels in media", "setting": "IL-1β; listed as galectin-8 var. 1", "value": "remain unaffected"}, {"measurement": "maximal apoptotic effect", "setting": "[4]", "value": "approximately 100%"}, {"measurement": "recovery of joints (histopathology)", "setting": "[5]", "value": "recovered, most of them completely and some at least partly"}, {"measurement": "IL-1ra levels in media", "setting": "IL-1ra [6]; PBLs of RA patients", "value": "significantly and dose-dependently increased"}, {"measurement": "IL-1ra levels in media", "setting": "IL-1ra [6]; PBLs of RA patients, listed as galectin-8 var. 1", "value": "decrease"}, {"measurement": "IL-1ra levels in media", "setting": "IL-1ra [6]; [9]", "value": "significantly and dose-dependently increased"}, {"measurement": "IL-1ra levels in media", "setting": "IL-1ra [6]; [10]", "value": "decrease"}, {"measurement": "IL-1ra levels in media", "setting": "IL-1ra [6]; synovial fluid cells (SFCs)", "value": "significantly and dose-dependently increased"}, {"measurement": "IL-1ra levels in media", "setting": "IL-1ra [6]; [11]", "value": "decrease"}, {"measurement": "TNFα levels in media", "setting": "TNFα [7]", "value": "No effect"}, {"measurement": "TNFα levels in media", "setting": "TNFα [7]; listed as galectin-8 var. 1", "value": "remain unaffected"}, {"measurement": "total cell population in the apoptotic area", "setting": "[8]; 50 ng/ml", "value": 32.5, "unit": "%"}, {"measurement": "total cell population in the apoptotic area", "setting": "[8]; 125 ng/ml", "value": 47.5, "unit": "%"}, {"measurement": "total cell population in the apoptotic area", "setting": "[8]; 250 ng/ml", "value": 48.4, "unit": "%"}, {"measurement": "total cell population in the apoptotic area", "setting": "[8]; 500 ng/ml", "value": 55.5, "unit": "%"}, {"measurement": "total cell population in the apoptotic area", "setting": "[8]; 750 ng/ml", "value": 58.5, "unit": "%"}, {"measurement": "total cell population in the apoptotic area", "setting": "[8]; 1000 ng/ml", "value": 77, "unit": "%"}, {"measurement": "total cell population in the apoptotic area", "setting": "[8]; 2000 ng/ml", "value": 77, "unit": "%"}, {"measurement": "percentage of apoptotic cells", "setting": "[8]; increasing concentrations (50-2000 ng/ml)", "value": "gradually increased"}]}]}
